The source of these data is patent US20110142842A1 (MEDINNOVA, published 2011).

The test concerns the target HLA-A*0201 (human, UniProt A*02:01). Put plainly: REVEAL MHC binding assay (ProImmune).
In the case of FLLLTISLL [Peptide ID 88 FLLLTISLL (CD52)], the “% Pass/fail control” value was 302 % of pass/fail control. To FIYGVILTA [Peptide ID 60 FIYGVILTA (TCR_TV)] belongs 149 % of pass/fail control; to RMPWYHSSL [Peptide ID 95 RMPWYHSSL (ZAP-70)], 85.6 % of pass/fail control. Then DMKDSIWWV [Peptide ID 37 DMKDSIWWV (PU.1)], with 131 % of pass/fail control; and VLWPRACWT [Peptide ID 100 VLWPRACWT (CD50)], with 139 % of pass/fail control; and SMSEEVTYA [Peptide ID 56 SMSEEVTYA (CLL-1)], with 158 % of pass/fail control. Regarding VLTPAQLNV [Peptide ID 44 VLTPAQLNV (MPO)], the “% Pass/fail control” value is 175 % of pass/fail control. Consider TLWQLVEYL [Peptide ID 97 TLWQLVEYL (ZAP-70)], for which the “% Pass/fail control” value is 198 % of pass/fail control. For the molecule LMGTLIAKV [Peptide ID 83 LMGTLIAKV (HA-1)], the “% Pass/fail control” value is 316 % of pass/fail control. Then FLYIGIITI [Peptide ID 4 FLYIGIITI (CD53)], with 136 % of pass/fail control; and KMAEAYSEI [Peptide ID 46 KMAEAYSEI (TCR_TV)], with 200 % of pass/fail control; and VLLRWEEEL [Peptide ID 89 VLLRWEEEL (CD50)], with 184 % of pass/fail control.

Regarding LLEGNLVTL [Peptide ID 76 LLEGNLVTL (CD64)], the “% Pass/fail control” value was 173 % of pass/fail control.

Take LLLTNTFGA [Peptide ID 92 LLLTNTFGA (CD11a)]: the “% Pass/fail control” value was 196 % of pass/fail control. For the molecule ILTALFLRV [Peptide ID 61 ILTALFLRV (TCR_TV)], the “% Pass/fail control” value is 159 % of pass/fail control.

For the molecule ALARGLPGA [Peptide ID 53 ALARGLPGA (CD7)], the “% Pass/fail control” value was 215 % of pass/fail control. In the case of LLWAGALAM [Peptide ID 86 LLWAGALAM (CD33)], the “% Pass/fail control” value was 321 % of pass/fail control. Take GLLSPQAQV [Peptide ID 33 GLLSPQAQV (FLT3)]: the “% Pass/fail control” value is 170 % of pass/fail control. Take LVAPRFLEV [Peptide ID 85 LVAPRFLEV (CD50)]: the “% Pass/fail control” value is 340 % of pass/fail control.

For the molecule KLKDLFTEL [Peptide ID 98 KLKDLFTEL (CD11a)], the “% Pass/fail control” value was 171 % of pass/fail control.

For LLLLLIFIV [Peptide ID 58 LLLLLIFIV (CD11a)], the “% Pass/fail control” value was 6.4 % of pass/fail control. To KLLLALAGV [Peptide ID 67 KLLLALAGV (MPO)] belongs 216 % of pass/fail control; to SMEEAKQLV [Peptide ID 71 SMEEAKQLV (MPO)], 169 % of pass/fail control; to RLFEQVMRI [Peptide ID 43 RLFEQVMRI (MPO)], 192 % of pass/fail control. Then GMGWAAFNL [Peptide ID 45 GMGWAAFNL (CD50)], with 193 % of pass/fail control; and ALASVLLAL [Peptide ID 73 ALASVLLAL (PR3)], with 139 % of pass/fail control; and LLIILLAEV [Peptide ID 68 LLIILLAEV (CD53)], with 99.2 % of pass/fail control. To RLYQFLLDL [Peptide ID 66 RLYQFLLDL (PU.1)] belongs 234 % of pass/fail control. Consider FLDCQIHRV [Peptide ID 7 FLDCQIHRV (CD127)], for which the “% Pass/fail control” value is 224 % of pass/fail control.

In the case of FLQDTFPQQ [Peptide ID 70 FLQDTFPQQ (CD127)], the “% Pass/fail control” value was 49.8 % of pass/fail control. Regarding VLIGILLLV [Peptide ID 35 VLIGILLLV (CD18)], the “% Pass/fail control” value was 117 % of pass/fail control. To VLLVVLLVV [Peptide ID 90 VLLVVLLVV (CD5)] belongs 71.5 % of pass/fail control.

On to YLIFCLCSL [Peptide ID 50 YLIFCLCSL (CD19)], for which the “% Pass/fail control” value was 71.2 % of pass/fail control. To VLFHNLPSL [Peptide ID 49 VLFHNLPSL (CD53)] belongs 216 % of pass/fail control.

Take LIQPFMFRL [Peptide ID 84 LIQPFMFRL (MPO)]: the “% Pass/fail control” value is 311 % of pass/fail control.

As to YLAVGIMFL [Peptide ID 5 YLAVGIMFL (CD64)], the “% Pass/fail control” value is 155 % of pass/fail control.

As for YLGYTVTWL [Peptide ID 93 YLGYTVTWL (CD11a)], the “% Pass/fail control” value is 239 % of pass/fail control. Then WLQAQKVQV [Peptide ID 63 WLQAQKVQV (TdT)], with 190 % of pass/fail control; and YLRPGQAAA [Peptide ID 52 YLRPGQAAA (CD18)], with 125 % of pass/fail control.

Take LLAEVTLAI [Peptide ID 47 LLAEVTLAI (CD53)]: the “% Pass/fail control” value was 199 % of pass/fail control. To ILYPINILI [Peptide ID 48 ILYPINILI (CD11a)] belongs 214 % of pass/fail control; to YLALGDQML [Peptide ID 91 YLALGDQML (CD50)], 197 % of pass/fail control; to LLRTGGWKV [Peptide ID 39 LLRTGGWKV (CD19)], 124 % of pass/fail control. Take HLYGSNASL [Peptide ID 38 HLYGSNASL (CD11a)]: the “% Pass/fail control” value was 135 % of pass/fail control. To ELLDVSWLI [Peptide ID 74 ELLDVSWLI (TdT)] belongs 220 % of pass/fail control; to FLLGLGLGV [Peptide ID 8 FLLGLGLGV (CD7)], 202 % of pass/fail control.

With AIWLFIFNV [Peptide ID 80 AIWLFIFNV (CD19)], the “% Pass/fail control” value is 199 % of pass/fail control. Then GMDRYLIYV [Peptide ID 9 GMDRYLIYV (CD18)], with 170 % of pass/fail control; and GMVFSLLQV [Peptide ID 99 GMVFSLLQV (CD127)], with 175 % of pass/fail control; and SICEGTVEV [Peptide ID 59 SICEGTVEV (CD5)], with 130 % of pass/fail control.

As for GLMATPAKL [Peptide ID 77 GLMATPAKL (MPO)], the “% Pass/fail control” value is 218 % of pass/fail control. To LMIPAGIYA [Peptide ID 40 LMIPAGIYA (CD20)] belongs 142 % of pass/fail control. Then NLEEDAYWV [Peptide ID 57 NLEEDAYWV (CD11a)], with 64.9 % of pass/fail control; and SLFEGIYTI [Peptide ID 6 SLFEGIYTI (FLT3)], with 183 % of pass/fail control. Then EMDEELHYA [Peptide ID 54 EMDEELHYA (CD33)], with 117 % of pass/fail control; and GLADVAVGA [Peptide ID 64 GLADVAVGA (CD11a)], with 206 % of pass/fail control. As to YISRDTCIV [Peptide ID 69 YISRDTCIV (HA-2)], the “% Pass/fail control” value is 133 % of pass/fail control. Then LLLSGAARA [Peptide ID 51 LLLSGAARA (PR3)], with 178 % of pass/fail control. To FMQPLFLVA [Peptide ID 62 FMQPLFLVA (HA-1)] belongs 215 % of pass/fail control; to IMSDSNYVV [Peptide ID 65 IMSDSNYVV (FLT3)], 220 % of pass/fail control; to KMIMNSLSL [Peptide ID 96 KMIMNSLSL (CD20)], 213 % of pass/fail control. For KLMSPKLYV [Peptide ID 55 KLMSPKLYV (CD19)], the “% Pass/fail control” value is 232 % of pass/fail control. With LLLTISLLV [Peptide ID 81 LLLTISLLV (CD52)], the “% Pass/fail control” value is 250 % of pass/fail control. Then HLLGPWLLL [Peptide ID 94 HLLGPWLLL (CD22)], with 212 % of pass/fail control; and TLPQLFLKV [Peptide ID 72 TLPQLFLKV (FLT3)], with 182 % of pass/fail control. To LLIHNNFGV [Peptide ID 42 LLIHNNFGV (CD53)] belongs 191 % of pass/fail control; to GLYQGLSTA [Peptide ID 41 GLYQGLSTA (TCR_TV)], 107 % of pass/fail control. Take VLQELNVTV [Peptide ID 34 VLQELNVTV (PR3)]: the “% Pass/fail control” value was 170 % of pass/fail control.

In the case of LLLQVSSRV [Peptide ID 36 LLLQVSSRV (CD64)], the “% Pass/fail control” value was 180 % of pass/fail control.
